“Also recorded” adds a separate entry of the source. Where two headings read alike, the source gives them in different places.
Key:
[1] = tested on: Pa PA14 biofilm transcriptome; assay: RNASeq transcriptome of biofilm cultures; type: cell-based, P. aeruginosa; conditions: 5 h
Method: Because 1-OH-PHZ induces iron starvation in A. fumigatus (Briard et al. (2015) Scientific Reports. 2015; 5), it was speculated that the abrogation of biofilm development in P. aeruginosa grown in the presence of either PodA or 1-OH-PHZox may be mediated by a response to Fe-limitation. To test this idea, changes to the transcriptome of Pa PA14 by RNASeq were assessed. After 5 h of incubation in the presence of PodA (1 μM), 1-OH-PHZ (200 μM) or PYO (200 μM), RNA was prepared from 1 ml of biofilm cultures (250 μl pooled from 4 static biofilm chambers) for analysis on an Illumina HiSeq 2500 sequencer at the Millard and Muriel Jacobs Genetics and Genomics Laboratory, as previously described (Babin et al. (2016) Proc Natl Acad Sci USA. 113(5):E597-E605; Kreamer et al. (2015) M Bio. 2015; 6(2):e02549. Epub 2015/02/26). This experiment was designed to identify genes that were likely to be specifically affected by PodA's transformation of PYO to 1-OH-PHZ under a condition that inhibited biofilm formation (FIG. 20A). As a reference for genes responsive to iron availability, these transcriptomes were compared to those previously found to respond to Fe(II) shock (Kreamer et al. (2015) M Bio. 2015; 6(2):e02549. Epub 2015/02/26).

[2] = PYO demethylation by purified PodA30-162 and mutants (spectrophotometric/HPLC); type: biochemical
Method: Enzyme activity and analysis. PYO demethylation by PodA30-162 was first determined by HPLC analysis as described previously (6, 9). To detect formaldehyde evolution, 150 nM protein was mixed with 50 μM PYO in 1 mL of 20 mM Tris pH 7.6 amended with 200 μL Nash reagent (2 M ammonium acetate, 50 mM acetic acid, 20 mM acetylacetone) and incubated at 55° C. until the reaction proceeded to completion (37, 38). The products were determined by HPLC using the same method as used for phenazine quantification. To monitor the formation of reduced phenazine, protein and 50 μM PYO were placed into an anaerobic chamber (Coy Laboratory Products) under an atmosphere of H2/N2 (5:95) and left overnight before allowing the reaction to proceed. To generate reduced PYO and 1-OH-PHZ, 50 μM were mixed with 1 mM sodium dithionite. The formation of reduced phenazine products was assayed visually under UV illumination (39). A BioTek Synergy 4 microplate reader (BioTek) plate reader in the anaerobic chamber was used to measure the emission spectrum of products with excitation at 250 nm. To determine the activity of PodA30-162 in the presence of glycerol, salts, or varying pH, 30 nM protein was suspended in 500 μL buffer, 40 μM PYO was mixed with 2× solution containing the buffer of interest (500 μL), and solutions were preheated to 30 C. For pH range measurements, the following buffers were used (40 mM, adjusted with KOH): acetic acid, pH 4.9; MES, pH 5.4 and 5.7; HEPES, pH 6.1; Tris, pH 6.9 and 7.5; Bicine, pH 7.8, 8.3 and 8.7; CHES, pH 9.4. To measure reaction rates, cuvettes containing the 2×PYO solution were placed in a Evolution 260Bio UV-Vis spectrophotometer (Thermo Scientific) and 500 μL of 30 nM protein was added at time 0 (15 nM protein and 20 μM PYO, final concentration). Reaction progress was monitored by measuring absorbance at 313 nm (40) every 0.5 seconds for 5 minutes. To measure kinetic parameters (kcat, Km) 15 nM protein was used in a reaction buffer of Bicine, pH 7.8; reactions were monitored as before with measurements every 0.2 seconds. The rate from the first 10 seconds of the reaction was used for the determination of kinetic parameters. Kinetic parameters were calculated in Microsoft Excel using the Solver plug-in and fitting data to ideal Michaelis-Menton plots with non-linear regression of experimental data (41). For measurements of the rate of methoxy-PMS demethylation, 300 nM protein was used and methoxy-PMS loss from the reaction mixture was monitored at 500 nm wavelength. Methoxy-PMS was purchased from TCI America. For assays with mutant proteins, 60 nM protein was used. The stimulatory effects of flavin or 2-oxoglutarate addition was determined by adding 25 μM flavin or 2-oxoglutarate to 20 μM PYO and 15 nM PodA30-162 and monitoring the reaction. Experiments testing alternative substrates were carried out using 1 mL reaction volumes containing 20 mM Tris (pH 7.6) and 50 μg mL^−1 PodA30-162. Alternative substrates tested were 10-methylphenothiazine (AlfaAesar), phenazine methosulfate (AlfaAesar), methoxyphenazine methosulfate (TCI America), and 4-keto-N-ethylphenazine. 4-keto-N-ethylphenazine was synthesized from phenazine ethosulfate (Sigma-Aldrich) by incubating under fluorescent light overnight followed by purification by HPLC as described (6, 42). As phenazine methosulfate is light sensitive and spontaneously converts to PYO in the presence of light, all reactions were carried out in the dark, and activity was assessed by end point analysis by HPLC after 4 hours (9).

B1: PodA30-162: truncated pyocyanin demethylase encoded by MFORT_14352 of Mycobacterium fortuitum lacking N-terminal helix, SEQ ID NO: 2 (protein, listed as Mycobacterium fortuitum)
chain: MDGRGGRSTTEPVTMTLDVKNDQVAKHDFGKPGMDVGDMDIFSDILSVDGKQVGYDGGACFFTNVTPDNPMTYCELTIHLDAGEIFARSLTPHTLAPFTMAITGGTGEYANSKGELTVSGVATPDEKYELKLTKAENLYFQ
expression of small gene cluster incl. QapR regulon [1]: upregulated modestly
log(2) changes relative to untreated control, metal scavenging and starvation response genes (FIG. 21A) ([1]; PodA 1 μM, 1-OH-PHZ 200 μM, PYO 200 μM): ~0 log(2)
activity in presence of glycerol or KCl or NaCl salts ([2]; 20 μM PYO, 15 nM PodA30-162): minimally inhibited
pH regime over which enzyme operates ([2]; 20 μM PYO, 15 nM PodA30-162): 4.9-8.7 pH
pH above which activity is lost ([2]; 20 μM PYO, 15 nM PodA30-162, 5 minutes): > 9 pH
activity in presence of flavins (FMN, FAD) or 2-oxoglutarate ([2]; 25 μM, 15 nM PodA30-162): not stimulated
activity under anoxic conditions ([2]; 50 μM PYO, anaerobic chamber): functions under anoxic conditions; also recorded: active
salt concentrations over which enzyme operates ([2]; KCl or NaCl): 0 to 400 mM
kcat ([2]; PYO substrate, 15 nM protein, Bicine pH 7.8): 1.20 ± 0.07 s⁻¹
Km ([2]; PYO substrate, 15 nM protein, Bicine pH 7.8, read-out: Km): < 1 µM
Km ([2]; best fit to Michaelis-Menton plot, 15 nM PodA30-162, PYO detection limit 0.5 μM, read-out: apparent Km): < 1 µM

Reference: US12241094B2, “Phenazine degrading agents and related compositions, methods and systems for interfering with viability of bacteria” (priority 2016, dated 2025)
